{"source": "paper PMC2917020", "about": "“Novel design principles enable specific targeting of imaging and therapeutic agents to necrotic domains in breast tumors” (Breast Cancer Research : BCR, 2010)", "key": {"primary xenografts": {"test_system": "primary xenografts", "settings": "circulates as non-covalent complex with SA; cited from earlier work"}, "HSA": {"molecular_target": "HSA (Homo sapiens, UniProt P02768)", "sequence (P02768 25-609)": "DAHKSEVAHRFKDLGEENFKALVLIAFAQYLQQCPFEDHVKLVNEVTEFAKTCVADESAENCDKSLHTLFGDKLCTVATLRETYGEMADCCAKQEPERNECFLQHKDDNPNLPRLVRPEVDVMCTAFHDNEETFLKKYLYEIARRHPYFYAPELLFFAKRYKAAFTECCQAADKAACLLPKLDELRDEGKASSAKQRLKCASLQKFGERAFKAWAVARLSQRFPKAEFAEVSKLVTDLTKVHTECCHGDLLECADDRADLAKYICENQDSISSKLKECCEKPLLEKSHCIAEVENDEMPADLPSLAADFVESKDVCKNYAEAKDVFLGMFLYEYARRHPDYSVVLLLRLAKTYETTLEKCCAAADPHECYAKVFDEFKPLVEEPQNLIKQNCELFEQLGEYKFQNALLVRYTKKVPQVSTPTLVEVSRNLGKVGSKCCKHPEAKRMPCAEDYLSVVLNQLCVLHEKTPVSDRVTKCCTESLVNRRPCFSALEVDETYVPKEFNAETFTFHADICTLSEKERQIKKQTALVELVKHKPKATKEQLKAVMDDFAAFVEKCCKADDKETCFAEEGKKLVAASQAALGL", "assay": "Association constants of Bchl-Ds to HSA (spectroscopic titration)", "assay_type": "binding", "settings": "for HSA association constant Ka(HSA): 1:1 non-covalent complex with HSA", "excerpt": "Association constants of Bchl-Ds to HSA were deduced from spectroscopic measurements of the ratio between Bchl-Ds and HSA for different concentrations of HSA using both factor analysis, as previously described and by monitoring changes in the near infrared (NIR) absorption of the Bchl-Ds during titration with HSA. Briefly, all four Bchl-Ds present broad NIR absorption with reduced intensity in SA-free aqueous solutions. Upon addition of SA, they form 1:1 complexes with the added protein ((Bchl-D)/SA) with strong and narrow NIR absorption bands. The narrow-band absorption is proportional to the ((Bchl-D)/SA) concentration enabling calculation of the association constant Ka through the following equation: [drawing 1]\nWhere [SA]0 is the analytical concentration of the added SA and [(Bchl-D/SA)] is the concentration of the Bchl-D complex with SA calculated from the spectral changes."}, "[1]": {"design": "method as in PMID 11216533", "settings": "cited from earlier work"}, "αVβ3 integrin receptors": {"test_system": "αVβ3 integrin receptors", "design": "method as in PMID 16309948", "settings": "cited from earlier work"}, "[2]": {"assay": "Biodistribution studies (tissue extraction, fluorescence)", "assay_type": "in vivo, CD-1 nude female mice", "description": "Anaesthetized mice were i.v. injected with 15 mg/kg STL-6014 (n = 27) or 9 mg/kg STL-7012 (n = 15). At each indicated time point, three animals were sacrificed and blood, kidney, liver and tumor tissues were collected into pre-weighed vials and frozen at -20°C. Tissue samples were homogenized in methanol (100 mg tissue/ml) and extracted the next morning by centrifugation (13,000 × g five minutes) at room temperature. Supernatants were diluted in methanol by a factor of two and drug concentration was determined by fluorescence measurements (Varian - Cary Eclipse spectrofluorimeter, Palo Alto, California, USA) at 750 nm (peak values). Drug concentrations were interpolated from a fluorescence calibration curve, based on predetermined drug concentrations using absorption spectroscopy."}, "MDA-MB-231-RFP tumors [3]": {"test_system": "MDA-MB-231-RFP tumors", "assay": "Whole-body fluorescence imaging of drug accumulation and clearance in tumors", "settings": "large necrotic tumors, 9 mg/kg i.v., from one hour post injection", "experimental": "(§1) Mammary fat pads (left, bottom nipple) of female mice were inoculated with harvested MDA-MB-231-RFP human breast cancer cells (4 × 10^6 in 100 μl saline). Tumors were classified as 'small' (≤100 mm^3) at one to two weeks from time of cell injection, or 'large' after three to four weeks (necrotic tumors, 250 to 500 mm^3). To avoid tumor burden, mice were sacrificed (cervical dislocation) when tumor size reached 10% of body weight or at 90 days post-implantation. External caliper measurements, length (L), width (W) and depth (D) were used to calculate in vivo tumor volume according to the formula: V = L/2 · W/2 · D/2 · π · 4/3 [46].\n(§2) The in Vivo Optical Imaging System (IVIS®100/XFO-12, Xenogen Corp., Alameda, CA, USA) was used to acquire fluorescent images of the RFP-expressing tumors, as well as Bchl-D compounds associated with tissues and organs after their intravenous (i.v.) infusion to the tested animals. The field of view was 15 cm. RFP fluorescence, in units of photons/sec, was detected using 525/50 nm and 612/75 nm filter sets for excitation and emission, respectively, with one second integration time. NIR fluorescence of the different Bchl-Ds, in units of photons/sec, was detected using 680/30 nm and 847/75 nm filter sets for excitation and emission, respectively, at an integration time of five seconds. Background fluorescence for all quantitative analyses was calculated by recording the average fluorescence (photons/sec)/cm^2 from three animals in three different areas around and within the tumor of untreated animals provided with a similar diet for three days before measurements.\n(§3) Drug accumulation was determined following i.v. administration of molar equivalents of the Bchl-D moiety to the tail vein of mice fed with a chlorophyll-free, purified diet (Harlan Teklad, Harlan Laboratories, Indianapolis, IN, USA) for three days before administration (in order to reduce skin and food autofluorescence). Before imaging, mice were anesthetized by intraperitoneum injection of a 30 μl mixture of 85:15 ketamine:xylazine.\n(§4) Xenogen Living Image Software (Xenogen Corp., Alameda, CA, USA) was used for sequential fluorescent image acquisition [see Additional file 1] and superimposition of photographic images of mice and color-coded fluorescent images."}, "[4]": {"test_system": "large MDA-MB-231-RFP tumors", "assay": "Fluorescence imaging of dissected tumors (spatial distribution)", "assay_type": "in vivo, CD-1 nude female mice", "settings": "15 mg/kg i.v."}, "MDA-MB-231-RFP tumors [5]": {"test_system": "MDA-MB-231-RFP tumors", "settings": "mouse, in vivo", "experimental": "as §1, §2, §3, §4"}, "in vivo": {"assay": "in vivo", "settings": "female, CD-1 nude, mouse", "experimental": "as §1, §2, §3, §4"}, "MDA-MB-231-RFP tumors [6]": {"test_system": "MDA-MB-231-RFP tumors", "assay": "In vivo competition between STL-6014 and free c(RGDfK)", "design": "species or system CD-1 nude female mice", "description": "STL-6014 (140 nmol, 7.5 mg/kg) was i.v. injected to the tail vein of mice one hour after being pre-injected with an excess (8.5 μmol) of c(RGDfK) free peptide. Whole-body fluorescence images were recorded up to 24 hours post-STL-6014 injection (IVIS®, Xenogen Corp., Alameda, CA, USA) with the respective filter settings, described above."}, "[7]": {"settings": "48 to 72 hours post-administration"}}, "note": "Where a name gives a salt, the structure may show the parent alone.", "data": [{"compound": "CC[C@H]1c2cc3[n-]c(c(CC(=O)OC)c4nc(cc5[n-]c(cc(n2)[C@@H]1C)c(C(C)=O)c5C)[C@@H](C)[C@@H]4CCC(=O)[O-])c(C(=O)NCCS(=O)(=O)[O-])c3C.[H+].[H+].[Pd+2]", "note": "[WST11]", "values": [{"measurement": "accumulation in the tumor tissue", "setting": "primary xenografts", "result": "no accumulation in the tumor tissue"}, {"measurement": "HSA association constant Ka(HSA)", "setting": "HSA", "result": "0.54 ± 0.07", "unit": "µM⁻¹"}]}, {"compound": "Cyclo-Arg-Gly-Asp-D-Phe-Lys [c(RGDfK)]", "values": [{"measurement": "half life in a similar animal model", "setting": "[1]", "result": "minutes"}, {"measurement": "Ka, association of c(RGDfK) moiety with αVβ3 integrin receptors", "setting": "αVβ3 integrin receptors", "result": "about 10^9 M^-1"}]}, {"compound": "CC[C@H]1c2cc3[nH]c(c(CC(=O)OC)c4nc(cc5[nH]c(cc(n2)[C@@H]1C)c(C(C)=O)c5C)[C@@H](C)[C@@H]4CCC(=O)O)c(C(=O)NCCS(=O)(=O)[O-])c3C.[K+]", "note": "[STL-7012, 3^1-oxo-15-methoxycarbonylmethyl-Rhodobacteriochlorin 13^1-(2-sulfoethyl)amide dipotassium salt]", "values": [{"measurement": "accumulation in tumor, fluorescence of tissue extracts", "setting": "[2]; 9 mg/kg i.v., any time longer than one hour post administration", "result": "no STL-7012 accumulation in the tumor"}, {"measurement": "tumor fluorescence in whole-body imaging", "setting": "MDA-MB-231-RFP tumors [3]", "result": "No specific tumor fluorescence"}, {"measurement": "HSA association constant Ka(HSA)", "setting": "HSA", "result": "0.44 ± 0.09", "unit": "µM⁻¹"}]}, {"compound": "CC[C@H]1c2cc3[nH]c(c(CC(=O)OC)c4nc(cc5[nH]c(cc(n2)[C@@H]1C)c(C(C)=O)c5C)[C@@H](C)[C@@H]4CCC(=O)NCCCC[C@@H]1NC(=O)[C@@H](Cc2ccccc2)NC(=O)[C@H](CC(=O)O)NC(=O)CNC(=O)[C@H](CCCNC(=N)N)NC1=O)c(C(=O)NCCS(=O)(=O)O)c3C", "note": "[STL-6014, 3^1-oxo-15-methoxycarbonylmethyl-Rhodobacteriochlorin 13^1-(2-sulfoethyl)amide-17^3-c(RGDfK)amide potassium salt]", "values": [{"measurement": "t1/2 of hepatic clearance", "setting": "[2]; 15 mg/kg i.v.", "result": "about four"}, {"measurement": "time to clear to nearly background levels in normal tissues", "setting": "[2]; 15 mg/kg i.v.", "result": "less than 72 hours"}, {"measurement": "tumor level relative to blood", "setting": "[2]; [7]", "result": "about two orders of magnitude"}, {"measurement": "tumor level relative to kidney, liver, intestines, lung and skin", "setting": "[2]; [7]", "result": "about two"}, {"measurement": "tumor level relative to spleen, heart, brain, fat and muscle", "setting": "[2]; 48 to 72 hours post-administration, data not shown", "result": "about 10 fold"}, {"measurement": "time of peak levels in normal tissues post-injection", "setting": "[2]; blood, liver, kidney, 15 mg/kg i.v.", "result": "less than five"}, {"measurement": "time of peak concentration in tumors post-injection", "setting": "[2]; large tumors, 15 mg/kg i.v.", "result": "eight"}, {"measurement": "peak concentration in tumors", "setting": "[2]; large tumors, 15 mg/kg i.v., eight hours post-injection", "result": 11, "unit": "μg drug/gr tumor tissue"}, {"measurement": "peak tumor level as share of the initial drug dose", "setting": "[2]; large tumors, eight hours post-injection", "result": "about 3.0%"}, {"measurement": "location of fluorescence signal in dissected tumor", "setting": "[4]; beyond 16 hours post-injection", "result": "only observed in the necrotic domain"}, {"measurement": "location of fluorescence signal in dissected tumor", "setting": "[4]; four hours post injection", "result": "within the viable tumor region alone"}, {"measurement": "time to full clearance from tumor", "setting": "MDA-MB-231-RFP tumors [5]", "result": "less than two"}, {"measurement": "tumor half lifetime (T1/2)", "setting": "MDA-MB-231-RFP tumors [5]", "result": "in the range of days"}, {"measurement": "clearance from small tumors relative to large tumors (faster)", "setting": "MDA-MB-231-RFP tumors [5]; iv, 15 mg/kg", "result": "more than 10 fold"}, {"measurement": "persistence of tumor fluorescence", "setting": "MDA-MB-231-RFP tumors [5]; iv, 15 mg/kg", "result": "still detectable at nine days"}, {"measurement": "t^1_1/2 of tumor fluorescence, bi-exponential decay", "setting": "MDA-MB-231-RFP tumors [5]; iv, 15 mg/kg", "result": "12.0 ± 3.5", "unit": "h"}, {"measurement": "t^2_1/2 of tumor fluorescence, bi-exponential decay", "setting": "MDA-MB-231-RFP tumors [5]; iv, 15 mg/kg", "result": "210.0 ± 86.0", "unit": "h"}, {"measurement": "time for tumor fluorescence to return to background values", "setting": "MDA-MB-231-RFP tumors [5]; iv, 15 mg/kg", "result": "≤ 48", "unit": "h"}, {"measurement": "time of peak tumor fluorescence after administration", "setting": "MDA-MB-231-RFP tumors [5]; iv, 15 mg/kg", "result": "six to eight"}, {"measurement": "Tmax", "setting": "in vivo", "result": "48 to 72", "unit": "h"}, {"measurement": "half-life", "setting": "in vivo; iv, 15 mg/kg, t1/2 of tumor fluorescence, mono-exponential decay", "result": "14 ± 1.5", "unit": "h"}, {"measurement": "STL-6014 uptake and accumulation after pre-administration of free c(RGDfK)", "setting": "MDA-MB-231-RFP tumors [6]; large tumors, data not shown", "result": "not affected"}, {"measurement": "STL-6014 tumor fluorescence after pre-injection of free c(RGDfK)", "setting": "MDA-MB-231-RFP tumors [6]; small tumors, 7.5 mg/kg (140 nmol) i.v. one hour after 61-fold molar excess c(RGDfK)", "result": "almost no STL-6014 fluorescence was detected in the tumor"}, {"measurement": "Kd", "setting": "HSA; as restated in discussion, read-out: Ka, association with SA (converted)", "result": 8.33, "unit": "µM"}]}]}
